This note sets out measurements from patent US20240182563A1 (GENOME, published 2024).

Substitutions are numbered along the chain they refer to.

A word on the EC50: it is the concentration giving half of the maximal effect. High values mean a need for much substance, low ones an effect from little substance. By Kd is commonly meant a measure of binding affinity in units of concentration. A high value points to lower affinity.

The target of assay [1] is T1, human CNTN4-10xHis (human, UniProt Q8IWV2 19-1000).
T1 sequence: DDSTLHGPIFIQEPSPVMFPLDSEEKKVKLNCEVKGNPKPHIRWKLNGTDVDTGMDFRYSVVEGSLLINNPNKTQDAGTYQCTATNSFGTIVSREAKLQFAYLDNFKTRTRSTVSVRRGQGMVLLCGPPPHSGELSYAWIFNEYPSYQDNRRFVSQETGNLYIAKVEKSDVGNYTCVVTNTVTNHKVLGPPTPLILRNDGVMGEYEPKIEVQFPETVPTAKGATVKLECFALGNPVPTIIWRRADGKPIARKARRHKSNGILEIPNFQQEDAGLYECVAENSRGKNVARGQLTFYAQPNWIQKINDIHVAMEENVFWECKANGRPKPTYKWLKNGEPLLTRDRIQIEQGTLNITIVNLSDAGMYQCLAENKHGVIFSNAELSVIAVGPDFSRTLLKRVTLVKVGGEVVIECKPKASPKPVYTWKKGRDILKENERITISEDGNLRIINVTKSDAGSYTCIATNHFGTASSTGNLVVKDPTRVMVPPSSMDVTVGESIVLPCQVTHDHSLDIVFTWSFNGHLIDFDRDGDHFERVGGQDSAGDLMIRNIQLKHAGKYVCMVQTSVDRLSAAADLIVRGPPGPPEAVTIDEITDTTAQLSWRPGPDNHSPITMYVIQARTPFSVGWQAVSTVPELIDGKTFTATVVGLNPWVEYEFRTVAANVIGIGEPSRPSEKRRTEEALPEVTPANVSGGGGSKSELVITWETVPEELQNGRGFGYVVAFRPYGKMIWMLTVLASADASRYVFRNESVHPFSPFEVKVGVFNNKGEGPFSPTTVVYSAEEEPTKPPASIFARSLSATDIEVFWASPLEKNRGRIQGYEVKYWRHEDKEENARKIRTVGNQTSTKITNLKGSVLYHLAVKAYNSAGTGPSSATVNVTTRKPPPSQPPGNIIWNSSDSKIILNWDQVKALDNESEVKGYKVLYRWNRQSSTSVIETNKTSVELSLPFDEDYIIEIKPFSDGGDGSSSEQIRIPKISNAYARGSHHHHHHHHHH
Briefly: ELISA, plate coated with CNTN4-10xHis, anti-human Fc-HRP. As for the experimental part: (§1) The LAH2, L1H2, and L2H2 antibodies prepared in Example 3.1 were subjected to an ELISA test together with A-01. An ELISA plate was coated with 200 ng of antigens (human CNTN4-10xHis or mouse CNTN4-10xHis). For antibody binding, antibodies were serially diluted from a maximum of 1 μM to 0.0001 nM, thereby binding to the antigen. Anti-human Fc-HRP was used as a secondary antibody for antibody detection. Color was developed using ABTS, which is a color developing reagent, and the absorbance at 405 nm was measured.
For orientation: An ELISA detects its analyte on a solid surface through an enzyme-linked reagent.

The target in assay [2] is T2, mouse CNTN4-10xHis (mouse, UniProt Q69Z26 19-1000).
T2 sequence: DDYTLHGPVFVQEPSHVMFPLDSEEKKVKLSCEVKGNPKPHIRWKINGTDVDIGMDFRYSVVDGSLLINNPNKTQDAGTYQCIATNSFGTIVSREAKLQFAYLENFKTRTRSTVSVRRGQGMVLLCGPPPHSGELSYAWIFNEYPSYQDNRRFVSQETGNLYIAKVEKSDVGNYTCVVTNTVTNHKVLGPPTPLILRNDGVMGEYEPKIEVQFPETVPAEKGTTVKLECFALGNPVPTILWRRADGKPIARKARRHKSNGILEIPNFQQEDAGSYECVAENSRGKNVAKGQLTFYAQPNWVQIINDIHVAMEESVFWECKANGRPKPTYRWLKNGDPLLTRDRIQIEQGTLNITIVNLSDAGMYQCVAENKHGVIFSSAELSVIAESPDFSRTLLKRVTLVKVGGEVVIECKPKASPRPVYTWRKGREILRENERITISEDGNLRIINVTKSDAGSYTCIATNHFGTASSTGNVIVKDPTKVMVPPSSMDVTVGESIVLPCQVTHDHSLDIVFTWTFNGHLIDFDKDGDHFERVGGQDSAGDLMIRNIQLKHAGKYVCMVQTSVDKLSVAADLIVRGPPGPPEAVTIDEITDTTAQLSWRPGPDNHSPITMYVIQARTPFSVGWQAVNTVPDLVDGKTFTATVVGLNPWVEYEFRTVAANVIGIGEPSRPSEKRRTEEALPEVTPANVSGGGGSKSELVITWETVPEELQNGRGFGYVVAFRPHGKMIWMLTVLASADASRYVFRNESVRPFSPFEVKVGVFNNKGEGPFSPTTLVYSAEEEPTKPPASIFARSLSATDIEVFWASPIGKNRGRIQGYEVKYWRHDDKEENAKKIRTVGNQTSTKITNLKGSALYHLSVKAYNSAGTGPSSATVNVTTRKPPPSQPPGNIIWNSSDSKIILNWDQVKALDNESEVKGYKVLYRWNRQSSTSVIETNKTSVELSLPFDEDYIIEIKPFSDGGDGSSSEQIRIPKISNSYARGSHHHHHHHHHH
Described as above. As for the experimental part:
as §1

The target of assay [3] is T3, Human CNTN-4 protein (human, UniProt Q8IWV2 19-1000, limits assumed).
T3 construct: soluble antigen run over the captured antibody; also called human CNTN4 (SPR analyte)
T3 sequence (looked up): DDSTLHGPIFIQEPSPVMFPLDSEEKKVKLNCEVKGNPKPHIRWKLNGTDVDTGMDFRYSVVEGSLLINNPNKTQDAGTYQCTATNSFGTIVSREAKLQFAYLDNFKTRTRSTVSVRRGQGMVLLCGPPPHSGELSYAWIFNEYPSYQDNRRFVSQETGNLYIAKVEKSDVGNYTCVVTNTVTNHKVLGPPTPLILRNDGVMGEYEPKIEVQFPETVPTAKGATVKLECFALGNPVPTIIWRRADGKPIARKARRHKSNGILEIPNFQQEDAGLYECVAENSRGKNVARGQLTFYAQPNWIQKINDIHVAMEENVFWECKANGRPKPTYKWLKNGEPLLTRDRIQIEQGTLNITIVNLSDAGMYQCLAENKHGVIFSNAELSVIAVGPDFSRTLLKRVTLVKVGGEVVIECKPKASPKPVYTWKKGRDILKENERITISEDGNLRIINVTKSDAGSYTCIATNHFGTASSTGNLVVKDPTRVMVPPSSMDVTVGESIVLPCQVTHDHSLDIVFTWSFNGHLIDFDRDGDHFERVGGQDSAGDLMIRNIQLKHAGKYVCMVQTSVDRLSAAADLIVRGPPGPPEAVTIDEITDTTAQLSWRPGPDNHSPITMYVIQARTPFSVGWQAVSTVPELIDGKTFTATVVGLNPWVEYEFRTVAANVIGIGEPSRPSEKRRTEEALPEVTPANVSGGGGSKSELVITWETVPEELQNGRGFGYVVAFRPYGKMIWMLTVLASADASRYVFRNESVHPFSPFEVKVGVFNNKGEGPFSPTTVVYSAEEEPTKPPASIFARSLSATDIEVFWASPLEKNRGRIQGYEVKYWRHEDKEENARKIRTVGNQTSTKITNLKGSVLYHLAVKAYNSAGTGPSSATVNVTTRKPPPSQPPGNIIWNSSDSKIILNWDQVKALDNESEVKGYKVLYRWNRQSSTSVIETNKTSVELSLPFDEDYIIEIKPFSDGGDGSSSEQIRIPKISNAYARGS
In words: SPR, antibody captured by anti-human IgG Fc on CM5 chip, CNTN4 as analyte. As for the experimental part:
An SPR test was performed on L1H2, which is most humanized at about 98%, among the antibodies prepared in Example 3.1. More specifically, in order to bind anti-human IgG Fc (capture antibody) using amine coupling, CM5 chip was mounted, running buffer was allowed to flow, the chip was activated, and then capture antibody was attached thereto. Dextrin to which capture antibody was not attached was deactivated using ethanolamine, and then regeneration was performed using 3M magnesium chloride to clear analyte except capture antibody. The L1H2 prepared at a concentration of 0.05 μg/mL was allowed to flow for 30 seconds at a rate of 10 μL/min for binding. Thereafter, human CNTN4 (400 nM to 0.78 nM) prepared by sequential dilution as an antigen was allowed to flow at a rate of 30 μL/min for 3 minutes to be bound, and dissociation was performed for 5 minutes. Then, in order to clear all analytes attached to the capture antibody, a regeneration solution (3M magnesium chloride) was allowed to flow at a rate of 20 μL/min for 30 seconds, and regeneration was performed. For each concentration of antigen, binding of L1H2, binding of antigen, dissociation, and regeneration were repeated in order.
For orientation: Surface plasmon resonance follows binding to a sensor surface in real time, without labels.

B1: anti-CNTN4 humanized antibody LAH2 (antibody, V domains shown)
VH: EVQLLESEGGLVQPGGSLRLSCAASGFTFSSFNMFWVRQAPGKGLEWVAEISGGGGSTWYAPAVKGRATISRDNSKNTVYLQMNSLRAEDTAVYYCAKSADTWSYGAATIDAWGQGTLVTVSS
VL: ALTQPSSVSANLGETVKITCSGSSGSYGWYQQKSPGSAPVTLIYDNTNRPSDIPSRFSGSGSGSTGTLTITGVRAEDEAVYYCGGYDGSTDVFGAGTTLTVL
notes: in the form of IgG4
For B1, the EC50 in assay [1] and in assay [2] was 0.017 nM in each case.

B2: anti-CNTN4 humanized antibody L1H2 (antibody, V domains shown)
VH: B1 VH
VL: ELTQDPAVSVALGQTVRITCSGSSGSYGWYQQKPGQAPVLVIYDNTNRPSGIPDRFSGSSSGNTASLTITGAQAEDEADYYCGGYDGSTDVFGGGTKLTVL
notes: in the form of IgG4
For B2, the Kd in assay [3] worked out at 93.2 nM. Moreover, the values for the EC50 in assay [1] and in assay [2] were 0.028 nM and 0.029 nM, respectively. The “fold difference in binding ability against A-01” value in assay [1] and in assay [2] was not above 3 times throughout.

B3: anti-CNTN4 humanized antibody L2H2 (antibody, V domains shown)
VH: B1 VH
VL: B2 VL with L40T, V41L, N63S, A65G
notes: in the form of IgG4
For B3, the EC50 in assay [1] was found to be 0.018 nM; in assay [2], 0.019 nM.
